± gives the standard deviation.
Test: protein stability index of a GFP-peptide fusion (GPS, HEK-293T) (PSI 1-6); higher = more stable
[1] = treatment: DMSO, c terminus: a fixed tail appended
[2] = treatment: MLN4924 1 uM, 8 h, c terminus: a fixed tail appended
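Note: 24-mer peptide tiles fused after GFP, lentivirally expressed, FACS-sorted into six equal bins by GFP/DsRed ratio, decoded by Illumina sequencing, PSI is the read-weighted mean bin number.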

RLQEVRESIRRAQVSQVKGAARLA [FCHSD1]
protein stability index [1]: 3.17 ± 0.45 | protein stability index [2]: 3.3 ± 0.28

ESGKSTIVKQMKIIHEAGYSEEEC [GNAI1]
protein stability index [1]: 5.16 ± 0.18 | protein stability index [2]: 4.85 ± 0.13

YGGRSVAPQNSFSAKLAPHYFHSI [KCNK9]
protein stability index [1]: 2.23 ± 0.11 | protein stability index [2]: 2.3 ± 0.3

LLTIGDANGEIQRHAEQQALRLEV [CARM1]
protein stability index [1]: 3.53 ± 0.27 | protein stability index [2]: 3.71 ± 0.11

ESILMSLPLTARWEYMHSPSENSK [CPOX]
protein stability index [1]: 3.45 ± 0.57 | protein stability index [2]: 3.93 ± 0.33

TRCKSSEEKKPGELKRLVESRRQQ [TRIM39]
protein stability index [1]: 5 ± 0.32 | protein stability index [2]: 5.02 ± 0.27

SESETSTMAAKKNRQSSDKQNGRV [C18orf25]
protein stability index [1]: 5.35 ± 0.17 | protein stability index [2]: 5.16 ± 0.17

ENHSMYCVQCKMPVCYQCLEEGKH [TRIM9]
protein stability index [1]: 4.07 ± 0.2 | protein stability index [2]: 4.36 ± 0.41

LICAISHTHRAHTVVPLDDATQEY [TRIM39]
protein stability index [1]: 2.59 ± 0.19 | protein stability index [2]: 2.51 ± 0.38

FKSFQYPLPWSECPVVRNGSVAVV [SLC6A17]
protein stability index [1]: 2.07 ± 0.29 | protein stability index [2]: 2.09 ± 0.56

QWGAEPEGSCYQTFRQYCGAACTC [RNF208]
protein stability index [1]: 3 ± 0.47 | protein stability index [2]: 3.06 ± 0.34

RGRASGFAGSMFGSVALGPVCPTV [KRT71]
protein stability index [1]: 2.7 ± 0.14 | protein stability index [2]: 2.88 ± 0.28

LGVVYRSLSFEDELVYADDYIMDE [ESRRG]
protein stability index [1]: 2.46 ± 0.04 | protein stability index [2]: 2.67 ± 0.33

VEKEEEPDPEPPPVTPQVGEGRKS [SMG5]
protein stability index [1]: 5.48 ± 0.13 | protein stability index [2]: 5.53 ± 0.21

EAAYLKILESSQTLLSVLKREAGN [SSNA1]
protein stability index [1]: 2.39 ± 0.13 | protein stability index [2]: 2 ± 0.26

ELMKCQIIYPRQQLLTLRELEMIG [TRIP13]
protein stability index [1]: 2.33 ± 0.47 | protein stability index [2]: 2.02 ± 0.53

CCPTSREAAVEALELLGATYVDKK [FEM1A]
protein stability index [1]: 4.28 ± 0.06 | protein stability index [2]: 4.3 ± 0.049

NESKGTRESWDSAKKLPPVQESQS [ELOA2]
protein stability index [1]: 5.41 ± 0.096 | protein stability index [2]: 5.1 ± 0.4

PRMCRYVRERDRLGNEYPKLHYPE [CDC25A]
protein stability index [1]: 3.08 ± 0.12 | protein stability index [2]: 3.15 ± 0.34

QFSLMLCAFVGALGGAAFLGTAIF [SPNS1]
protein stability index [1]: 2.81 ± 0.47 | protein stability index [2]: 2.47 ± 0.41

VQEHARCVHPRGGVIQSVSSWKHG [C18orf25]
protein stability index [1]: 3.08 ± 0.28 | protein stability index [2]: 3.03 ± 0.4

PSLAVNLADPYRSLKAPGARGPGP [JUNB]
protein stability index [1]: 4.01 ± 0.29 | protein stability index [2]: 3.83 ± 0.17

SGLDDFFLDIDTSAVEKEPARAPP [SERTAD3]
protein stability index [1]: 4.71 ± 0.24 | protein stability index [2]: 4.75 ± 0.31

ECQYYIDKLEYLDEKQRDPRIEAS [NET1]
protein stability index [1]: 4.12 ± 0.13 | protein stability index [2]: 4.04 ± 0.19

DLDDFAGFSCNQGRYPLIQTLRQE [CHIT1]
protein stability index [1]: 3.44 ± 0.2 | protein stability index [2]: 3.48 ± 0.082

RCSSMHFLVAEWNEPSINFYKRRG [SAT1]
protein stability index [1]: 2.86 ± 0.33 | protein stability index [2]: 2.42 ± 0.28

QDSPGPHEALSRLWELCHLWLRPE [ZNF396]
protein stability index [1]: 2.33 ± 0.14 | protein stability index [2]: 2.15 ± 0.079

DRPRCCLRGKECCINRFQQVESRW [BTBD1]
protein stability index [1]: 2.89 ± 0.32 | protein stability index [2]: 3.06 ± 0.38

EMEVMRRQLYAVNRRLRALEEQGA [FATE1]
protein stability index [1]: 3.65 ± 0.29 | protein stability index [2]: 3.68 ± 0.41

RIVKIWDMTPVVGCSLATGFSPH [WDFY1]
protein stability index (treatment: DMSO, c terminus: native): 2.05 ± 0.28 | protein stability index (treatment: MLN4924 1 uM, 8 h, c terminus: native): 2.34 ± 0.32

GLAGFFASVAMICAIASGSELSES [SLC29A1]
protein stability index [1]: 3 ± 0.53 | protein stability index [2]: 2.9 ± 0.37

QKDLIMKVENLTLKNHFQSVLEQL [TAF7L]
protein stability index [1]: 2.66 ± 0.2 | protein stability index [2]: 2.4 ± 0.29

NFIGRQWEISDDYPSLQAMGWFNN [CRYBA1]
protein stability index [1]: 2.45 ± 0.18 | protein stability index [2]: 2.32 ± 0.18

EEPENGEPTAAATARRSKRERREE [PWWP2B]
protein stability index [1]: 5.63 ± 0.29 | protein stability index [2]: 5.8 ± 0.14

GFLTVTNLGVENMNHYKKTTLEIH [PTPN9]
protein stability index [1]: 1.93 ± 0.59 | protein stability index [2]: 1.92 ± 0.4

GSCGQGRTIRHVYCKTSDGRVVPE [ADAMTSL2]
protein stability index [1]: 3.66 ± 0.31 | protein stability index [2]: 3.57 ± 0.58

WGHCEVTMRYINGLDPEPLPLMDL [SPSB4]
protein stability index [1]: 2.49 ± 0.26 | protein stability index [2]: 2.5 ± 0.4

FDFERSGLQHAPEPDAADGPYDPN [SMAD6]
protein stability index [1]: 5.37 ± 0.29 | protein stability index [2]: 5.5 ± 0.41

LDMEKRRCRQSLEDSESLRIKEVE [LRRC45]
protein stability index [1]: 4.79 ± 0.2 | protein stability index [2]: 4.67 ± 0.1

FGLAIEVEGEQQAWFGFAGTPGYL [CAMK2A]
protein stability index [1]: 2.68 ± 0.92 | protein stability index [2]: 2.92 ± 0.65

KKLKKDDKKKELQELNELFKPVVA [ZC3H15]
protein stability index [1]: 4.18 ± 0.48 | protein stability index [2]: 4.15 ± 0.34

SPEVESLPVASSSTLLPLAPSNST [NFE2L1]
protein stability index [1]: 5.04 ± 0.23 | protein stability index [2]: 5.27 ± 0.13

LRGKECCINRFQQVESRWGYSGTS [BTBD1]
protein stability index [1]: 2.47 ± 0.18 | protein stability index [2]: 2.72 ± 0.16

LPELKANPFKERICRVFSTSPAKD [CIB1]
protein stability index [1]: 3.46 ± 0.08 | protein stability index [2]: 3.58 ± 0.2

Reference: the supplement of paper PMC10567573
